Laboratory results: patent publication US20180099046A1 (JIANGSU HENGRUI MEDICINE, published 2018)
Residue numbers refer to the chain shown, from its start.

T1: human sclerostin protein (R&D SYSTEM, 1406-ST/CF) (human, UniProt Q9BQB4 24-213, biotinylated in the LRP-6 blocking assay; not labelled in Biacore)
T1 construct: Bought protein; also called human SOST; SOST (R&D, Catalog #1406-ST-025)
T1 sequence (looked up): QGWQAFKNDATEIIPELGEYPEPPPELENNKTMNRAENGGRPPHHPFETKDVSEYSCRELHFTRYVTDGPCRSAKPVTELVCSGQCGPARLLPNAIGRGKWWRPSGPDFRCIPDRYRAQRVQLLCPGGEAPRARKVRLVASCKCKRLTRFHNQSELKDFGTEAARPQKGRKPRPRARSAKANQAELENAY

T2: human sclerostin with a Flag tag (h-SOST-Flag) (human, UniProt Q9BQB4 24-213, biotinylated (biotin labeling kit) in the ELISA)
T2 construct: also called SOST-FLAG protein; not shown: C-terminal Flag tag
T2 sequence (looked up): T1 sequence (looked up)

B1: humanized antibody Ab-5 (antibody, human IgG4 S228P, kappa, V domains shown)
VH: EVQLVQSGAEVKKPGASVKVSCKASGYTFTDYNLDWLRQAPGEGLEWIGDIDPNDGDILYNQKFRDRVTMTTDTSTSTAYMELRSLRSDDTAVYYCARRWAYYFDYWGQGTTVTVSS
VL: DIVMTQSPSSLSASVGDRVTITCKASQSVSNDVAWYQQKPGKSPKLLIYYTSNRFTGVPDRFSGSGSGTDFTLTISSLQPEDFATYFCQQDYSSPVTFGGGTKVEIKR
notes: also called humanized anti-SOST antibody
B2: Romosozumab (antibody, V domains shown)
VH: EVQLVQSGAEVKKPGASVKVSCKASGYTFTDYNMHWVRQAPGQGLEWMGEINPNSGGAGYNQKFKGRVTMTTDTSTSTAYMELRSLRSDDTAVYYCARLGYDDIYDDWYFDVWGQGTTVTVSS
VL: DIQMTQSPSSLSASVGDRVTITCRASQDISNYLNWYQQKPGKAPKLLIYYTSRLLSGVPSRFSGSGSGTDFTLTISSLQPEDFATYYCQQGDTLPYTFGGGTKVEIK
B3: murine anti-human sclerostin monoclonal antibody Ab-1 (antibody, V domains shown)
VH: EVQLQQSGPELVKPGTSVKIPCQTSGYTFTDYNLDWLKQRPGESLEWIGDIDPNNGDILYNQKFRDKATLTVDTSSNTAYLELRSLTSEDTAVYYCARRWAYYFDYWGQGTTLTISS
VL: NIVMTQTPKLLFVSAGDRITITCKASQSVSNDVAWYQQKPGQSPKLLIYYTSNRFTGVPDRFTGSGYGTDFTLTINTVQAEDLAVYFCQQDYSSPVTFGAGTKLELK
notes: Mouse hybridoma antibody; also called parental antibody; murine antibody
B4: humanized antibody Ab-9 (antibody, human IgG4 S228P, kappa, V domains shown)
VH: B1 VH with D55N
VL: B1 VL with D1N
B5: humanized antibody Ab-10 (antibody, human IgG1, kappa, V domains shown)
VH: B1 VH with L37V, E43Q, I48M, D55N
VL: B1 VL with V3Q, S43A, D60S, F87Y

How the values were obtained:
[1] = molecular target: T1, human sclerostin protein (R&D SYSTEM, …); experiment: SPR (Biacore)
[2] = molecular target: T3, cynomolgus monkey sclerostin with a Flag tag (cyno-SOST-Flag) (cynomolgus monkey); experiment: SPR (Biacore)
T3 construct: also called monkey SOST

[3] = molecular target: T1, human sclerostin protein (R&D SYSTEM, …); experiment: SPR (Biacore X100), antibody captured by anti-human antibody, SOST as analyte, 1:1 Langmuir fit
From the text: (§1) The anti-human capture antibody was covalently linked to the CMS biosensor chip (Cat. #BR-1000-12, GE) of a Biacore instrument (Biacore X100, GE) according to the method described in the instructions of anti-human trapping kit (GE, Cat.# BR-1008-39) for affinity capturing an amount of a test antibody. Then, a gradient of concentrations of SOST antigen (human SOST, R&D SYSTEM, Cat.#1406-ST-025/CF, R&D; monkey SOST, cyno-SOST-Flag, obtained by purification, encoded by SEQ ID NO: 4 of Example 1; murine SOST, m-SOST-Flag, obtained by purification, encoded by SEQ ID NO: 3 of Example 1) were flowed through the surface of the biochip. The reaction signal was detected in real-time using a Biacore instrument (GE, BiacoreX100) to obtain the association and dissociation curves. After each cycle of dissociation was finished in the experiment, the biochip was washed and regenerated with regeneration solution in the anti-human capture kit.
(§2) The amino-coupled kit used in the experiments was purchased from GE (Cat. #BR-1000-50, GE), and the buffer was HBS-EP+10× buffer solution (Cat. #BR-1006-69, GE), and the buffer was diluted to 1× (pH 7.4) with D.I. Water.
(§3) The data obtained was fitted by GE BlAevaluation version 4.1 software using a 1:1 Langmuir model, and the affinity value was generated.

[4] = molecular target: T3, cynomolgus monkey sclerostin with a …; experiment: as above
From the text: as §1, §2, §3

[5] = molecular target: T3, cynomolgus monkey sclerostin with a …; experiment: competition ELISA: antibody blocks binding of monkey sclerostin to captured LRP-6-Fc
Method: (§4) In the method, goat anti-human Fc antibody was coated onto a 96-well EIA/RIA plate, and then LRP-6-Fc fusion protein was added for incubation. The biotinylated sclerostin protein and the anti-sclerostin antibody were co-incubated, and then added to the plate for incubation. After washing the plate, the binding amount between biotinylated sclerostin and LRP-6 was measured, and the IC₅₀ value of the blocking activity of the sclerostin antibody was calculated.
(§5) The goat anti-human Fc antibody was diluted to a concentration of 1 μg/ml with PBS buffer at pH 7.4 (Sigma, P4417-100TAB), and added to a 96-well EIA/RIA plate at a volume of 100 μl/well. Then, the plate was incubated at 37° C. for 2 hours. After discarding the liquid, the plates were blocked with 200 μl/well of blocking solution containing 5% skim milk (Guangming skim milk) in PBS, and incubated at 37° C. for 2.5 hours. After blocking, the blocking solution was discarded and the plate was washed 5 times with PBST buffer (pH 7.4 PBS containing 0.05% tween-20). LPR-6-Fc fusion protein (R&D SYSTEM, 1505-LRP-025) was diluted with sample dilution buffer (pH 7.4 PBS containing 1% BSA) to 1 μg/ml and 50 μl/well was added, then the plate was incubated at 37° C. for 2 hours. […]

[6] = molecular target: T1, human sclerostin protein (R&D SYSTEM, …); experiment: competition ELISA: antibody blocks binding of biotinylated human sclerostin to captured LRP-6-Fc
Method: as §4, §5

[7] = molecular target: T1, human sclerostin protein (R&D SYSTEM, …); experiment: cell-based or functional assay
[8] = molecular target: T2, human sclerostin with a Flag tag …; experiment: binding ELISA, biotinylated h-SOST-Flag on streptavidin plate
Method: (§6) ELISA experiments were used to detect the binding properties of sclerostin antibodies. Sclerostin with a Flag tag (h-SOST-FLAG, encoded by SEQID NO: 2) was biotinylated with a biotin labeling kit (Dojido Chem, LK03), and immobilized onto a 96-well EIA/RIA plate via binding to streptavidin coated on it. After the antibody was added, the strength of the signal was used to determine the binding activity between the antibody and human sclerostin.
Streptavidin (Sigma, S4762-5MG) was diluted to a concentration of 5 μg/ml with PBS buffer at pH 7.4 (Sigma, P4417-100TAB), and added to a 96-well EIA/RIA plate (Corning,CLS3590-100EA) at a volume of 50 μl/well. Then, the plate was incubated in an incubator at 37° C. for 2 hours. The liquid was discarded, the plates were blocked with 200 μl/well of blocking solution containing 5% skim milk (Guangming skim milk) in PBS, and incubated in an incubator at 37° C. for 2.5 hours or overnight (16-18 hours) at 4° C. After blocking, the blocking solution was discarded and the plate was washed 5 times with PBST buffer (pH 7.4 PBS containing 0.05% tween-20). Biotinylated SOST-FLAG protein (R&D SYSTEM, 1505-LR-025) was diluted with sample dilution buffer (pH 7.4 PBS containing 1% BSA) to 0.5 μg/ml and was added to each well at 50 μl/well, then the plate was incubated in the incubator at 37° C. for 2 hours. After incubation, the reaction solution in the plate was discarded, and the plate was washed with PBST 6 times, and then 50 μl/well of gradient dilution antibody with sample dilution buffer was added, and the plate was incubated in a incubator at 37° C. for 2 hours. The plate was washed 6 times with PBST after incubation, added with 100 μl/well of HRP-labeled goat anti-mouse (Jackson Immuno Research, Cat No. 115-035-003) or HRP-labeled goat anti-human secondary antibody (Jackson Immuno Research, Cat No. 109-035-003) diluted in sample dilution, and incubated at 37° C. for 1 hour. After washing the plates with PBST 6 times, 50 μl/well of TMB substrate (KPL, Cat No. 52-00-03) was added to each well, and incubated at room temperature for 10-15 min, and the reaction was stopped by adding 50 μl 1M H₂SO₄ to each well. The OD value at a wavelength of 450 nm was read on a NOVOStar microplate reader, and then EC₅₀ values of the binding between the sclerostin antibody of the present invention and human sclerostin were calculated.

[9] = molecular target: T2, human sclerostin with a Flag tag …; experiment: binding ELISA, biotinylated h-SOST-Flag on streptavidin plate (Test Example 1)
Method: as §6
Streptavidin (Sigma, S4762-5MG) was diluted to a concentration of 5 μg/ml with PBS buffer at pH 7.4 (Sigma, P4417-100TAB), and added to a 96-well EIA/RIA plate (Corning,CLS3590-100EA) at a volume of 50 μl/well. Then, the plate was incubated in an incubator at 37° C. for 2 hours. The liquid was discarded, the plates were blocked with 200 μl/well of blocking solution containing 5% skim milk (Guangming skim milk) in PBS, and incubated in an incubator at 37° C. for 2.5 hours or overnight (16-18 hours) at 4° C. After blocking, the blocking solution was discarded and the plate was washed 5 times with PBST buffer (pH 7.4 PBS containing 0.05% tween-20). […] The OD value at a wavelength of 450 nm was read on a NOVOStar microplate reader, and then EC₅₀ values of the binding between the sclerostin antibody of the present invention and human sclerostin were calculated.

[10] = molecular target: T1, human sclerostin protein (R&D SYSTEM, …); experiment: competition ELISA: antibody blocks binding of biotinylated human sclerostin to captured LRP-6-Fc (Test Example 2)
Method: as §4, §5

Binder	fold affinity against the positive molecule (Romosozumab) [1] [times]	fold affinity against the positive molecule (Romosozumab) [2] [times]	Kd [3] [nM]	Kd [4] [nM]	IC50 [5] [nM]	IC50 [6] [nM]	Cell activity EC50 (nM): alkaline phosphatase (ALP) activity in C2C12 cells given wnt3a and SOST [7] [nM]	EC50 [8] [nM]	EC50 [9] [nM]	IC50 [10] [nM]
B1	~10	> 10	0.064	0.03	110	23.5	84.7	0.63		
B2			0.67	0.52	46.8	27.9	71.6			
B3								0.701	0.701	9.91
B4								0.4		
B5								0.54		
